Laboratory results reported in US20240309109A1 (MorphoSys, published 2024).
Blank lines part the entries; values can stand above or below the binder they belong to.

Tests used:
[1] = molecular target: T1, human CD38 on cells (human, UniProt P28907 1-300); test: FACS Scatchard on RPMI8226 cells, single measurement; RPMI8226 cells, FACS Scatchard; single measurement
T1 construct: The cell that carried CD38 is named under assay in each row; also called CD38 on Raji, RPMI8226, OPM2, CCRF-CEM, human erythrocytes, CD38 CHO-K1 transfectants
Method: (§1) All stainings were performed in round bottom 96-well culture plates (Nalge Nunc) with 2×10⁵ cells per well. Cells were incubated with Fab or IgG antibodies at the indicated concentrations in 50 μl FACS buffer (PBS, 3% FCS, 0.02% NaN₃) for 40 min at 4° C. Cells were washed twice and then incubated with R-Phycoerythrin (PE) conjugated goat-anti-human or goat-anti-mouse IgG (H+L) F(ab′)2 (Jackson Immuno Research), diluted 1:200 in FACS buffer, for 30 min at 4° C. Cells were again washed, resuspended in 0.3 ml FACS buffer and then analyzed by flow cytometry in a FACSCalibur (Becton Dickinson, San Diego, CA).

[2] = molecular target: T1, human CD38 on cells; test: FACS Scatchard on OPM2 cells, IgG format; * different experiment; OPM2 cells, FACS Scatchard, IgG format; different experiment
[3] = molecular target: T1, human CD38 on cells; test: FACS Scatchard on OPM2 cells, mean from 2 measurements; OPM2 cells, FACS Scatchard; mean from 2 measurements
[4] = molecular target: T1, human CD38 on cells; test: FACS Scatchard on CCRF-CEM cells, single measurement; CCRF-CEM cells, FACS Scatchard; single measurement
[5] = molecular target: T2, human CD38 Fc-fusion aa 45-300 (human, UniProt P28907 45-300); test: ELISA on CD38 Fc-fusion protein, IgG format
T2 construct: Expressed in HEK293 behind a human Vkappa leader, which is left out here; also called CD38-Fc fusion protein; CD38 Fc-Fusion protein

[6] = molecular target: T2, human CD38 Fc-fusion aa 45-300; test: SPR (Biacore), Fab on immobilized CD38 Fc-fusion; 84 taken as the standard deviation (n = 4) by footnote d
Method: (§2) The Biacore studies were performed on directly immobilized antigen (CD38-Fc fusion protein).
(§3) The kinetic constants kₒₙ and koff were determined with serial dilutions of the respective Fab binding to covalently immobilized CD38-Fc fusion protein using the BIAcore 3000 instrument (Biacore, Uppsala, Sweden). For covalent antigen immobilization standard EDC-NHS amine coupling chemistry was used. For direct coupling of CD38 Fc-fusion protein CM5 senor chips (Biacore) were coated with ˜600-700 RU in 10 mM acetate buffer, pH 4.5. For the reference flow cell a respective amount of HSA (human serum albumin) was used. […] Injection time for each concentration was 1 min, followed by 2 min dissociation phase. For regeneration 5 μl 10 mM HCl was used. All sensograms were fitted locally using BIA evaluation software 3.1 (Biacore).

[7] = molecular target: T2, human CD38 Fc-fusion aa 45-300; test: SPR (Biacore), Fab on immobilized CD38 Fc-fusion; 54 is the standard deviation (n = 3)
Method: as §2, §3

[8] = molecular target: T1, human CD38 on cells; test: FACS Scatchard, IgG1 on Raji cells
[9] = molecular target: T1, human CD38 on cells; test: FACS Scatchard on RPMI8226 cells, single measurement
Method: as §1

[10] = molecular target: T1, human CD38 on cells; test: FACS Scatchard on OPM2 cells, mean from 2 measurements
[11] = molecular target: T1, human CD38 on cells; test: cell-based or functional assay
[12] = molecular target: T1, human CD38 on cells; test: FACS Scatchard on OPM2 cells, IgG format; * different experiment
[13] = molecular target: T1, human CD38 on cells; test: FACS Scatchard on CCRF-CEM cells, single measurement
[14] = molecular target: T1, human CD38 on cells; test: FACS Scatchard on OPM2 cells, IgG format

B1: MOR03088 IgG (antibody, V domains shown)
VH: QVQLVESGGGLVQPGGSLRLSCAASGFTFSSYAMNWVRQAPGKGLEWVSGISSWGSSTYYADSVKGRFTISRDNSKNTLYLQMNSLRAEDTAVYYCAREDGSYMTDYFAYWGQGTLVTVSS
VL: DIELTQPPSVSVAPGQTARISCSGDNIGHYYVSWYQQKPGQAPVLVIYSDSNRPSGIPERFSGSNSGNTATLTISGTQAEDEADYYCQSYNGTYVFGGGTKLTVLG
- EC50 [1]: 24.6 nM
- EC50 [2]: 15.3 nM
- EC50 [3]: 2.6 nM
- EC50 [4]: 25.5 nM
- ELISA CD38 Fc-Fusion protein (% Reactivity of MOR03087) [5]: 18%

B4: MOR03087 IgG1 (antibody, V domains shown)
VH: QVQLVESGGGLVQPGGSLRLSCAASGFTFSSYYMNWVRQAPGKGLEWVSGISGDPSNTYYADSVKGRFTISRDNSKNTLYLQMNSLRAEDTAVYYCARDLPLVYTGFAYWGQGTLVTVSS
VL: DIELTQPPSVSVAPGQTARISCSGDNLRHYYVYWYQQKPGQAPVLVIYGDSKRPSGIPERFSGSNSGNTATLTISGTQAEDEADYYCQTYTGGASLVFGGGTKLTVLG
- Kd [8]: 5 nM
- EC50 [9]: 6.3 nM
- EC50 [10]: 17.5 nM
- ADCC RPMI8226 EC50 [11]: 0.14 nM
- CDC CHO EC50 [11]: 3.4 nM
- EC50 [12]: 17.4 nM
- EC50 [13]: 14.7 nM
- EC50 [14]: 5.7 nM
- ELISA CD38 Fc-Fusion protein (% Reactivity of MOR03087) [5]: 100%

Further lines, results first:

- Kd [6]: 117 nM
B2: MOR03128 Fab (Fab, V domains shown)
VH: QVQLKESGPALVKPTQTLTLTCTFSGFSLSSSGMSVSWIRQPPGKALEWLARIYSDDSKSYSTSLKTRLTISKDTSKNQVVLTMTNMDPVDTATYYCARAAHWNGPLFDVWGQGTLVTVSS
VL: DIELTQPPSVSVAPGQTARISCSGDNIGHYYAHWYQQKPGQAPVVVIYDDNDRPSGIPERFSGSNSGNTATLTISGTQAEDEADYYCQAYTGDGGRVFGGGTKLTVLG
notes: Fab format

- Kd [7]: 168 nM
B3: MOR03127 Fab (Fab, V domains shown)
VH: QVQLVQSGAEVKKPGESLKISCKGSGYSFSTSWVGWVRQMPGKGLEWMGIIDPDISYTSYSPSFQGQVTISADKSISTAYLQWSSLKASDTAMYYCARYLMGLGYDVWGQGTLVTVSS
VL: DIALTQPASVSGSPGQSITISCTGTSSDVGAINYVSWYQQHPGKAPKLMIYDVNKRPSGVPDRFSGSKSGNTASLTISGLQAEDEADYYCGSYTMQVGSYVFGGGTKLTVLG
notes: Fab format
